Results reported in patent US20210122827A1.

Target: human GLP-1 receptor (human) (UniProt P43220)
Assay: cell-based or functional assay

Chain of human GLP-1 receptor (human) (P43220 24-463): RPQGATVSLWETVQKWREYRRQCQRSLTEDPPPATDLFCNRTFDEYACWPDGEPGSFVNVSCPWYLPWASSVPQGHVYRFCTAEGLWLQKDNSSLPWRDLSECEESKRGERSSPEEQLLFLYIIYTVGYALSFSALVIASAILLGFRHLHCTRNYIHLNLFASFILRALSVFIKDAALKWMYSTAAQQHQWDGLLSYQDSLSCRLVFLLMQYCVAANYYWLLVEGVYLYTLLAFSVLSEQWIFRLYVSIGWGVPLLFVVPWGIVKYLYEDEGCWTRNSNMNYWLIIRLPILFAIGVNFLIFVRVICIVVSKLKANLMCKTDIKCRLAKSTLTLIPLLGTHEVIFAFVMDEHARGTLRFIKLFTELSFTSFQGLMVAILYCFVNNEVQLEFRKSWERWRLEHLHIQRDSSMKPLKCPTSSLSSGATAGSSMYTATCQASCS

For “GMA102 (proprietary fusion protein of GLP-1R antibody and GLP-1)”, the EC50, CRE-Luciferase reporter gene assay on CHO-DHFR- cells co-expressing hGLP1R was 0.016 nM.
